These results are taken from paper PMC7020083.

The target in the test is hTNFR2-SCP3-Fc (human | ectromelia virus) (UniProt P20333). Put plainly: SPR; […], single-cycle; 1:1 Langmuir fit. In general terms: Surface plasmon resonance follows binding to a sensor surface in real time, without labels.
UniProt P20333, sequence (P20333 23-257 limits assumed): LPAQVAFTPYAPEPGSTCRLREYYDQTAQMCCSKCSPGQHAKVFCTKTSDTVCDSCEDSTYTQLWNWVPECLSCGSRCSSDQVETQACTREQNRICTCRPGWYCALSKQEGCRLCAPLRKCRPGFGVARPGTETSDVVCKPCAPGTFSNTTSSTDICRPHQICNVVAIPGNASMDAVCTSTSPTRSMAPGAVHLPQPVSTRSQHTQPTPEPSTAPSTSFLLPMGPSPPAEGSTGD

In general, Kd refers to the equilibrium constant for the complex coming apart. Low values mean higher affinity, high ones lower affinity. By koff is commonly meant the rate constant with which the complex falls apart. By kon is commonly meant the rate constant with which the complex forms. As to “human CCL25 (from UniProt O15444 24-150) (ligand)”, the Kd was 6.75 nM, the koff came to 0.00374 s⁻¹ and the kon was determined as 554000 M⁻¹ s⁻¹.
The molecule “human CXCL12 (from UniProt P48061 22-93) (ligand)” returned a Kd of 49.8 nM, a koff of 0.00825 s⁻¹ and a kon of 166000 M⁻¹ s⁻¹.

B1: human CXCL13 (ligand)
chain: VLEVYYTSLRCRCVQESSVFIPRRFIDRIQILPRGNGCPRKEIIVWKKNKSIVCVDPQAEWIQRMMEVLRKRSSSTLPVPVFKRKIP
Molecule B1 came in with a Kd of 21.4 nM, a koff of 0.00155 s⁻¹ and a kon of 72000 M⁻¹ s⁻¹.
